Where no end group is shown, it is not given here. [ ]: non-standard residue; d: D form. The star is where a group is joined. 5FAM = O=C1OC2(c3ccc(O)cc3Oc3cc(O)ccc32)c2ccc(C(=O)*)cc21; Me2 = dimethyl on lysine side chain; PEG = not defined here
Assays:
Assay in all cases: FP
[1] = molecular target: T1, UHRF1 full-length (a.a. 1–793), MBP fusion ( (printed UniProt entry is …, UniProt Q96T88 1-793))
T1 chain: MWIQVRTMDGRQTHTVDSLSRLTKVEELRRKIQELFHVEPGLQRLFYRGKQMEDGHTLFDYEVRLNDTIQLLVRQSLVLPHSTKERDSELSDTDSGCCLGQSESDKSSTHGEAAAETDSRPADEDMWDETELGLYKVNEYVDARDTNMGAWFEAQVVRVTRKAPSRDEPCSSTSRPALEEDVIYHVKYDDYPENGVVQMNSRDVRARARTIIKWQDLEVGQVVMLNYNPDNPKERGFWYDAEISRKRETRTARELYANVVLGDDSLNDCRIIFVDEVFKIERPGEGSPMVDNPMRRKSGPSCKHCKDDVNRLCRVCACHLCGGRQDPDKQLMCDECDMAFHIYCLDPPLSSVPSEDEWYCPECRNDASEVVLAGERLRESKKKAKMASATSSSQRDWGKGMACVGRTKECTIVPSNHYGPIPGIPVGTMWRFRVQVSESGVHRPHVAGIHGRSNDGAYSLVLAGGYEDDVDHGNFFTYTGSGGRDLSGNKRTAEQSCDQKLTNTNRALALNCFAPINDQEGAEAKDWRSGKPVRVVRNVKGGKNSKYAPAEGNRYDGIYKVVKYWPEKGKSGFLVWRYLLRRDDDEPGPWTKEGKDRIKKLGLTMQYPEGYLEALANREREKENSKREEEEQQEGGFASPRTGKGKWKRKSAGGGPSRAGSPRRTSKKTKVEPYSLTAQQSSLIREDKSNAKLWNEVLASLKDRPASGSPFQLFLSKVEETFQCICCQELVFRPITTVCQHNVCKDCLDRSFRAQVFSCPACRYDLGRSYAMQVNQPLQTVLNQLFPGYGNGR

[2] = molecular target: T2, GST-tagged chromodomain Y-like protein isoform 2 (CDYL1b) chromodomain ( (printed UniProt entry is …))
T2 chain: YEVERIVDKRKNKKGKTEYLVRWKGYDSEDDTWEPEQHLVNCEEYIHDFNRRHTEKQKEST

[3] = molecular target: T3, GST-tagged UHRF1 tandem Tudor domain (TTD, a.a. 125–285) ( (printed UniProt entry is …, UniProt Q96T88 125-285))
T3 chain: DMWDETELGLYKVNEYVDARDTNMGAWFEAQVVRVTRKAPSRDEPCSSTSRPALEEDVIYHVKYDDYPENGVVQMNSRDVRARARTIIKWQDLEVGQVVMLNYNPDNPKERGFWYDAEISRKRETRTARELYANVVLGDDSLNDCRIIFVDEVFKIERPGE

[4] = molecular target: T4, MPP8 chromo (Homo sapiens)
T4 chain: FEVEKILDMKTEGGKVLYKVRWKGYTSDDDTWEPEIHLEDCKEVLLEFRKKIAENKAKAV

[5] = molecular target: T5, GST-tagged UHRF1 TTD–PHD R295A/R296A ( (printed UniProt entry is …, UniProt Q96T88 125-364, R295A | R296A))
T5 sequence: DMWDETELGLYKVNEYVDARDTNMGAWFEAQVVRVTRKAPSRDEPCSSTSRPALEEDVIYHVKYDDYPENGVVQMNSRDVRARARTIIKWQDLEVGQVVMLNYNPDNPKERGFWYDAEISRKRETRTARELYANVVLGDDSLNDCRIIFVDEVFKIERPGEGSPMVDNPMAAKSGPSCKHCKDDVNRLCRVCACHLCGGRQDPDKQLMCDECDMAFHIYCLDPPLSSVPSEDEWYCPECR

[6] = molecular target: T6, GST-tagged UHRF1 TTD-L2 (a.a. 125–301) ( (printed UniProt entry is …, UniProt Q96T88 125-301))
T6 chain: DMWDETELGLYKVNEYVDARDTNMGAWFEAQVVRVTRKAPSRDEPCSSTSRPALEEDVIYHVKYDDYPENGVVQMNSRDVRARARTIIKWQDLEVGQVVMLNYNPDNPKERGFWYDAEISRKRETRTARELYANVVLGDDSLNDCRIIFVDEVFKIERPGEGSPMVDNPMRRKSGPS

[7] = molecular target: T7, GST-tagged UHRF1 TTD–PHD (a.a. 125–364) ( (printed UniProt entry is …, UniProt Q96T88 125-364))
T7 chain: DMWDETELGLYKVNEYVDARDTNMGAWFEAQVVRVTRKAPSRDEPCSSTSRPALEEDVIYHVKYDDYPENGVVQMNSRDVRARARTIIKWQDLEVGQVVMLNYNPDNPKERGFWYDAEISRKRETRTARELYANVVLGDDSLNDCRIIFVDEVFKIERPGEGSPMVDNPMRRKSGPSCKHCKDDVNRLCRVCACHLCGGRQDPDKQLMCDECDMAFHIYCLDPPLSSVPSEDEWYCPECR

[8] = molecular target: T8, GST-tagged UHRF1 TTD–PHD S298E ( (printed UniProt entry is …, UniProt Q96T88 125-364, S298E))
T8 sequence: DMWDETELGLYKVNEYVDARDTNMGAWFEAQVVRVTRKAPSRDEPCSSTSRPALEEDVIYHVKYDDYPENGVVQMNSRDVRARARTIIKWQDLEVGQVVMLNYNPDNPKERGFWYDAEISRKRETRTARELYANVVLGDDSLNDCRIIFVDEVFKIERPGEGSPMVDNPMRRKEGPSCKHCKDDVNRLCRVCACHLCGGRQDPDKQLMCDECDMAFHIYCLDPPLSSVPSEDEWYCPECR

B1: FAM-LIG1(118–130)K126me2-PEG-CPP (peptide)
peptide: 5FAM-IPKRRTARK(Me2)QLPK[PEG][dK][dK][dK][dR][dK][dV]-NH2
modifications: reading uncertain
With B1 the Kd [1] was 8 nM.

B2: FAM-LIG1(118–130)K126me2 peptide (peptide)
peptide: {FAM}-IPKRRTARK(Me2)QLPK
modifications: not fully specified (C-terminus); printed as FAM-LIG1(118–130)K126me2 peptide
In the case of B2, the Kd [2] is reported as 6500 nM, the Kd [3] is reported as 40 nM and the Kd [4] is reported as 32000 nM. It also gave a Kd [5] of 8 nM, a Kd [6] of 10 nM and a Kd [7] of 10 nM. The Kd [8] was 10 nM.

Source: paper PMC7585203 (2020)
